Patent US20090048196A1 (University of California, published 2009)

Target: N-terminal alkaline phosphatase-tagged RBP (AP-RBP fusion protein) (human, UniProt P02753 19-201)
Experiment: AP-RBP binding to live COS-1 cells transfected with bovine STRA6, AP activity read-out
Experimental: The cells were then washed twice with PBS⁺ and fixed in fresh 2% formaldehyde in PBS⁺ at room temperature for 10 min. After 3 more PBS washes, the cells were heated in PBS for 1 h at 65° C. […] The reaction was stopped by washing cells twice with PBS containing 1 mM CaCl₂. The cells were then lysed in 200 μl of cold PBS containing 1% Triton X-100 and protease inhibitors per well. The cell lysates were centrifuged at 3,000 g at 4° C. for 5 min. The supernatants were removed and heated at 65° C. for 1 h. Twenty microliters of the heated lysate were mixed with 200 μl of pNPP (Sigma) and incubated at 37° C. for 1 h for the AP color reaction. The reactions were stopped by adding 50 μl 3 M NaOH and were transferred to a 96-well plate for reading in a microplate reader at 405 nm.

B1: bovine STRA6 (wild-type) (receptor)
chain: MSTQAAGNQTSSGATDSEDSYDSWYIDEPQGGQELQPEGLVPSCQPNVPPSLYHTCLAVLSILVLFLLAMLVRRRQLWPRCGHGRPGLPSPVDFLTGDRPRTVPAAVFMVLFSSLCLLLPTEDPLPFLSLASPPGRDGEAETSRGPWKILALLYYPALYYPLAACATVRHGAAHLLGSLLSWAHLGVQVWQRAECPESPKIYKYYSLLASLPLLLGLGFLSLWYPVQLVRSFGHGAATGSKGLQSSYSEEYLRTLLCQKKLKSSSHTCKRGFASQAWMYFRHSVYIPQQGFRLPLKLVLSVTLTGTAIYQVALLLLVGVVPTIQKVRAGITTDVSYLLAGFGIVLSEDRQEVVELVKHHLWALEVCYISALVLSCLLTFLMLVHSLVTHRTNLRALHRGGALDIGPLTQSPRPSRQAIFCWMSFTAYQTAFTCLGLLVQQILFFLGTLTLAFLVFMPMLHGRNLLLLHYLKSSWPFWLTLALAVTLQNAAAHWAFLDTHHGRPGLTNRRALYAATFLLFPVNVLVGTMVAAWRVLLSALYNAVHLGRMDLSLLPLRAATLDPGYHTYCNFLRMEASQSHPAATAFCALLLRTQRPKPRATPQDGLRLGEEEEGIQLLQTKDLVAKGAGPRARQGRARWGLAYTLLHNPALQAFRKTALPGARPNGAQP
notes: also called RBP receptor; WT
**Q.** With B1 as the binder, how does the Kd read?
**A.** 59 nM
